Data published in PMC11602162.

Biological target: N-NTD (SARS-CoV-2 (Wuhan-Hu-1)) (UniProt P0DTC9)
Test: DSF
Conditions: 10 mM Tris-HCl pH 7.4, 150 mM NaCl, 1 mM MgCl2, BLI with 0.05% Tween-20

## TCGGACATCGGAATGTCTGA [A58-20 T6-to-A]
  binding signal: -0.5 C (Tm shift)
